# T1: cynomolgus C5 (cynomolgus monkey)
# T1 chain: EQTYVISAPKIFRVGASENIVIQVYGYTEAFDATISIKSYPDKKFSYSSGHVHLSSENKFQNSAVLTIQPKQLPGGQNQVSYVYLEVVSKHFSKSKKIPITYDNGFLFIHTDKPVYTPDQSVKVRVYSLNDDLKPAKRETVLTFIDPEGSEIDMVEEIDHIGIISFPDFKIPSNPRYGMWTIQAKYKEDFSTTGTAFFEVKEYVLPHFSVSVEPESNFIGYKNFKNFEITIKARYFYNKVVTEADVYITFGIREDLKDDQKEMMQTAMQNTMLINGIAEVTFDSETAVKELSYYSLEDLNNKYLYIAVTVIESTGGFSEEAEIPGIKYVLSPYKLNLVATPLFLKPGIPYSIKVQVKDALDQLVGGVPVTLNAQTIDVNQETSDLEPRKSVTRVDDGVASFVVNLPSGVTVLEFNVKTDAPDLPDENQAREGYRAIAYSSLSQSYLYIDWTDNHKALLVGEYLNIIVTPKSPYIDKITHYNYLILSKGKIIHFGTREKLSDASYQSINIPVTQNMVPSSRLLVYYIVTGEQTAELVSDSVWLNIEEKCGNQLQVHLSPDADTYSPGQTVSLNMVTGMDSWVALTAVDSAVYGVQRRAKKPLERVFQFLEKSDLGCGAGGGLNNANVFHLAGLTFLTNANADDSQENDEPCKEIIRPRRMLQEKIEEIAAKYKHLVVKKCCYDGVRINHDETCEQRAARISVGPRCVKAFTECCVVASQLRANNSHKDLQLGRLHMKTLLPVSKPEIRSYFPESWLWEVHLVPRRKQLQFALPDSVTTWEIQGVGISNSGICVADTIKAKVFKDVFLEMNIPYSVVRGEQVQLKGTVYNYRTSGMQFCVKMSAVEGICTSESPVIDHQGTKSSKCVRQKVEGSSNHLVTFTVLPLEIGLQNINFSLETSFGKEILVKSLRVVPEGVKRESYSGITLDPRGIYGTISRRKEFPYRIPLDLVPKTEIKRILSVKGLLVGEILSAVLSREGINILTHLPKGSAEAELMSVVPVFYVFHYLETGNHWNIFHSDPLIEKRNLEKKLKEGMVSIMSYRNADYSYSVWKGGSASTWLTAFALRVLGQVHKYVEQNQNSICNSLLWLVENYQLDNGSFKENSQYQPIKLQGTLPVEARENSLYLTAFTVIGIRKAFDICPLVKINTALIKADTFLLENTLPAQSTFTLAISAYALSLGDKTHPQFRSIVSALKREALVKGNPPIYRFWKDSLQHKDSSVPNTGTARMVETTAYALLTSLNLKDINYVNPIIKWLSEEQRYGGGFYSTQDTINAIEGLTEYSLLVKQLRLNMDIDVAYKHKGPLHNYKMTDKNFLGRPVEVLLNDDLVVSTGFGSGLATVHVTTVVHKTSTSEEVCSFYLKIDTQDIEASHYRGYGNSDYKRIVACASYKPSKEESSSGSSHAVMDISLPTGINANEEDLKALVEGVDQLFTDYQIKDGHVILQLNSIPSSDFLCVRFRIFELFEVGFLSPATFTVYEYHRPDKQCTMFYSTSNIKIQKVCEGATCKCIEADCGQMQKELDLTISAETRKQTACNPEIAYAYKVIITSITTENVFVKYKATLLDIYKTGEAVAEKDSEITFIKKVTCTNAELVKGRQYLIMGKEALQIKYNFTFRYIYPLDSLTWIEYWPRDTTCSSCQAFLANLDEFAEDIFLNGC
# Experiments:
# [1] = biological target: C5-K109A (human); experiment: other, Western blot
# [2] = biological target: T1, cynomolgus C5; experiment: SPR, pH 7.4, 37C
# [3] = biological target: human C5 (human); experiment: SPR, pH 7.4, 37C
# [4] = biological target: C5-D51A (human); experiment: other, Western blot
# [5] = biological target: human C5 (human); experiment: SPR, pH 5.8, 37C
binder,measurement,setting,value
"CFA0305 (antibody, V domains shown) VH: QSLEESGGDLVKPGASLAVTCTASGFSSSSSYYMCWVRQAPGKGLEWIGCIYTGSGATYYASWAKGRFTISKTSSTTVTLQMTSLTVADTATYFCASDGGYVTPTHAMYLWGPGTLVTVSS VL: DVVMTQTPASVSAAVGGTVTIKCQASQNIGSDLAWYQQKPGQPPRLLIYGASKLASGVSSRFSGSGSGKEFTLTISDLECADAVTYYCQCTFVGSSYGNAFGGGTEVVVK",binding result,[1],no binding
same,Kd,[2],0.00554 µM
same,Kd,[3],0.0154 µM
same,binding result,[4],no binding
same,Kd,[5],0.43 µM

# Reference: US11597760 (dated 2023)
